Test results: a protein production outcome set (Wang et al. 2014)

Experiment: label from the status in PepcDB records
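Also: failed if final PepcDB status was selected cloned or expressed and not failed if soluble or beyond.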

Sequence | protein production
MDLQGSVIKLQAAEAAGCKSPGRLLIIYLRPDAPRPQACASSVPAAMNRFKASKFRHMEARPSRREAWISDIRAGTTATCGNHIKSSCSLIAFNSDRPGVLGIISLEGHEENKRHVTYLGCHSDLVTDLDFSPFDDFLLASGSADRTIKLWRLSSTGEALPSVPGVVLGPEELPVDVLQFHPTADGVLVSTAGRTVKVWDVAKQQHLTELEAHKDLVQSAVWSRDGATVGTACKDKQLRIFDPRARAQASQSTQAHENNRDIRLAWTGIQEYLVSTGFNQMREREAKLWDTRVFSSALASITLDTSPGSLIPLLDPDSGLLVLAGKGENQLYCYEVTPQQPALSPVTQCILENALRGAALVPRQALAVMNCEVLQVLQLSDTAIIPISHRVPRKAVEFHEDLFPDTAGSVPASDAHTWWAGDNQQVQKVSLNPAHRPHPRFTSSLLPTLEPSPNMEQPAELPRADTELSEGFSSPSSLVSPSTPSSLGLSLSSTSGIGTSPSQRSLQSLLGPSSKFRHAEGTILHRDSHITNLKGLNLTTPGESDGFCANRLRVAVPLLSSGGQVAVLELQKPGRLPDTALPTLQNGAAVMDLVWDPFDPHRLAVAGEDARIRLWRVPPGGLKNVLTTPETVLTGHTEKIYSLRFHPLAADVLASSSYDLTIRIWDLQAGTEQLRLQGHQDQIFSLAWSPDGKQLATVCKDGRVRVYDPRSSPLPLQDGPGPEGGRGARIVWVCNGGCLLVSGFDSRSERQLQLYMADALAEGPSALLGLDVAPSTLLPSYDPDTGLVLLTGKGDTRVFLYEVIPEAPFFLECNSFTSPDPHKGFILLPKTECDIQDVEFARCLRLRQTSLEPVAFRLPRVRKEFFQDDVFPDTAVTWASALDAKAWFKGANGQPRLLSLQPPGMTPVSQAPREVPARRTPSSAQYLEEKSDQQKKEELLNAMVAKLGNREDPLPQDSFEGVDEDEWD | failed
MRFGSRIEDGTGAPGAGRLARFAAVGGSGVVVNLAVLHVLAQGLGVPEVAASAVAIEASVLSNFLLHDAITFRDRRGGRGRLARLGRYHAVSLVGVAIQLATFAALALLARHALGRPSLGPLRLPAQAAGIALAFAWSWAGSARWAWAGAGAAVRGPEAGARGRALLPAVLFGALVALHVLPIWLVRYFPTQDGPLHVENVLALLHHGASPLLRGYYEANWGAQPNWLTQALLAPLLSIVSPLTAEKLVLSGYTVLLPISFRAVLPRGARGWWAALAVFPFVHAYPFHMGFWNFCYGVALAFLAAGFWLRTRGRLGPGRFAALAVLSLLLYLAHSVAFAGALLFAGAVLGLRAARSLARARRHPARRRRVAAAYARRAAAGLAAAAPGLLLLGAWLLAHRDRVAARIPLPELAAKLAAGYSLVSIDRRELPLAMAVMLVLAVAVVHAALVRAGRGVRLLAHDGWLVAAAAFVLLYFAVPDVVAAGAHVSDRMALLALLCVAAWLGAASAGPGAPARRAAVALAAIAVVALGVRLDKQRQLSAYLEEYASASAAVEEGRVMLPLALSPYGPQDAHGRRMGYRIKPFLHATGWIVAARGGVDLKNSQANTDHCPVRFPAGRNPFHVIAGSLGRMEGVPPCVDLRGARRLGRLDYVLVWGATRELLETPCGAALAADLAARYEPVWLSAPRGMLEIWRPRAAVAVAR | failed
MAEHGETQADEEEEEQVWSWGAGTDGQLGTTKLQDELLPQLLSLTSLPSISMLACGGAHVIALTSGGKVFTWGRGSSGQLGHGDILNITLPKLVSFFDDSVITQAAAGWSHSGFVSDSGCIFTCGNGSFGQLGHGDTLSLSTPAKVSHFNNDSVKMVACGMRHSLVLFAGNQVCGFGSGKRGQLGFSSDRIKSVNLPCVVSGLKDVEVVRISANGDHSAAISADGQFFSWGRGFCGGPDVHAPQSLPSPLSFREVAVGWNHALLLTVDGEVFKLGSTLNKQPEKQQLQIDSSEALFEKVPDFDGVKVMQIAAGAEHSAAVTENGEVKTWGWGEHGQLGLGNTNDQTSPELVSLGSIDLRTKEIKVYCGSGFTYAVKRKQELSPTSS | failed
MSTLPTPPRPRPVDIIIPVYKGLEETRLCLESVLATLPAADGLIVIDDHSPDPALVAYLKDRAAGDRRIRLLHNPENLGFVGTVNRGMALEPERDVLLLNSDTEVAGDWVARLRAAAYADRRIGTVTPFSNNATICSWPRFCQDNPLPPGLDVAGVDRAFAAANPGLSIDIPTGVGFAFYIRRDCLDEVGLFNAEAFGKGYGEENDFCRRAHHRGWRNVLAADTFVYHSGNVSFGVNQERLDSAMRQLLALHPDYRRVVQLHINQDPAQNMRWRAALGILRQSALPVLLFVTHNHGGGTLSHVHELAKALEGRAWGLLLTPGPRNTAVVTLPASLGGDALPFDLEQDWDGLLDLLRYAGVNRLHLHHMLGVPERLLDLPEQLSIPFDFTAHDFHAGCPRVMLCGPGSRYCGQPEERALCDACLAQAPKTEAGDITSWRAAMVARLSRAERLFAPSADTANRLKRMLPALSFRAIPHPDAQGLATNAPPPLLRPCGTTEPLRILVLGALSRAKGADLVEATAREAARGDLPLEIHLLGYGYRPLHRARGRLTAHGRYHPEEIAGHLERIAPHVAWLPAGWPETYSYTLSEVMAAGLPVVVSDLGAPPERILGRPLSWVLPWNVDASTAAAFFGRLRAGEIPASPEAPALSPQSTPRVDFYREGYLAEVFPEKARARLPEREIGELIGQALDRAGARRRRLQCWGDLKVVRQRIWRSLITLLAHPSLFPLVSRIPVSFQERLKRLIKG | failed
MGYCIIIPAYNAARTLPAVVREVLGLGMPCLVVDDGSTDGTSATVEGLGVHLLRHDGNRGKGAALRTGFEWALAHGYSGVVTLDADGQHDPTAIPLLAATARERNVDILIASRDTQFREMAGLRSVWNRFGVWCMRKRTGFTITDSQSGFRWYSARLLKGVSLEASGYHLEMEILMKAWRGGFAIDSLPVAARVADGRATSHFRPVRDTWNICMTFLRHMLEHHHHHH | not failed
MQATTATPHDIVFLFDCDNTLLDNDHVLADLRAHMMREFGAQNSARYWEIFETLRTELGYADYLGALQRYRLEQPRDTRLLLMSSFLIDYPFASRVYPGALNALRHLGARGPTVILSDGDVVFQPRKIARSGLWDEVEGRVLIYIHKELMLDQVMECYPARHYVMVDDKLRILAAMKKAWGARLTTVFPRQGHYAFDPKEISSHPPADVTVERIGDLVEMDAEWLLAEKR | not failed
VIAAHGWAGDATVWRAWQQRFEARGWHWDAIERGYGQREPHQPSWAELPGQRLVIAHSLGLHLLPEKVLQQADAVVSLAGFAAFVPAGAAGRALGVALKGMASCLGTSDEPAMLRKFLSRCASPLPLSALPNNPLLRGMHPSGRQRLQDDLVLLQQCQSLPDGWPEGASVLVVQGEQDAIVCPDSRTQLLQALPPSRTDHRLRPDEGHAVVTPAVLDLVVRWAGN | failed
MLNSHPKKTQSLYRAGLVVLQITESLLILALLYQAINKLIFINNYSIKFMLTFILYSPEFFMANLTTYYFIYEKFKILHSIIVITKLFQIILTLLLFILGFIFKIYVYQTSLAIILGITVVYLVFNVTILVLIKAKIKNLE | failed
VLRWITAGESHGRALVAVVEGMVAGVHVTSADIADQLARRRLGYGRGARMTFERDAVTVLSGIRHGSTLGGPIAIEIGNTEWPKWETVMAADPVDPAELADVARNAPLTRPRPGHADYAGMLKYGFDDARPVLERASARETAARVAAGTVARAFLRQALGVEVLSHVISIGASAPYEGPPPRAEDLPAIDASPVRAYDKAAEADMIAQIEAAKKDGDTLGGVVEAVALGLPVGLGSFTSGDHRLDSQLAAAVMGIQAIKGVEIGDGFQTARRRGSRAHDEMYPGPDGVVRSTNRAGGLEGGMTNGQPLRVRAAMKPISTVPRALATVDLATGDEAVAIHQRSDVCAVPAAGVVVETMVALVLARAALEKFGGDSLAETQRNIAAYQRSVADREAPAARVSG | not failed
MLRIFQGRPAVTIAAVLVAASVAGCAGKAKKPTLVYEERPVELLYSTGADRLDRGNWNEAVDYFREVERQHPYSEWSRRSILMTGYAHYMGNQYAEAIGDADRFISLYPGNPSAQYAFYLKAICYFEQIVDVNRDQAATEQALAALRDVVQRYPNTEYATDARLKIDMVNDQLAGKEMAIGRWYLKNGQTLAAIGRFKAVIERHQTTSHTPEALFRLVEAYLTIGLNEEAKRNGAVLGYNFPGDRWYVDAYRLLNDNGLRPAVEPLKAGAKRNALERILSKDKEATLAPPGERKAKKGLLGPLGM | failed
MFPFENQRLPISALIHKKNHSRLQPHPLFEEQPMKILLIGANGTIGSAVARELEQRHEVVRIGRTSGDFQVDISDSQSIRALFEKTGRFDALVCAAGNVTFAPLGEMTAEHFSLGLEDKLMGQVNLLLIGREYANDGASFTFTTGVLSHDPIRSGASAALVNGAIDSFVRAAAIELPRGLRVNSISPNVLLEAMGSYAPYFRGFKPVPAADVALAYAKSVEGLQTGQTYRVG | failed
MPVDLQALYPRLIHLMLDTVFVVDRDNQIVFVSDACKTLLGYEACELIGTPITRYMHPDDLAATRASIMRVMNGQPHYDFCNRYLRKDGSVVHILWAACWSEEAQARIGVARDVTAQRKAEDELRFLAHHDPLTRLANRAMFNERLDTALAAARRHNRRLALLFLDINDFKQINDNHGHSVGDRVLCTLARRLERCVGAAGTVARMGGDEFTVLLPDCPSPEAIATHVQHILAVMAEPLDAEFAGIDAPSCSIGVARFPEDGNDADMLLRHADGHMYRIKRQRAATG | failed
MGVLDIVKAGVISGDELNKIYDYAKAEGFAIPAVNVVGTDSINAVLEAAKKVNSPVIIQFSNGGAKFYAGKNCPNGEVLGAISGAKHVHLLAKAYGVPVILHTDHAARKLLPWIDGLIEANAQYKKTHGQALFSSHMLDLSEESLEENLSTCEVYLQKLDALGVALEIELGCTGGEEDGVDNTGIDNSKLYTQPEDVALAYERLGKISDKFSIAASFGNVHGVYKPGNVSLQPEILKNSQKFVKDKFALNSDKPINFVFHGGSGSELKDIKNAVSYGVIKMNIDTDTQWAFWDGVREYELKNRAYLQGQIGNPEGDDKPNKKYYDPRVWLRSGEESMIKRLEIAFEDLNCINKN | not failed
MGDASINIDKETVANYFVIKQGGPINRDHWTVTANTEEKTGEVSAAYPHNGQTISLIDGEINTFWHSKWQGGEVAPPYEIILDMGKENSVSQLGLIARQNALTSMNLEIYAGDDGETWNLIGKYFFDGSIKTEQMVPVKACDARWIRIYIPTLGSGSSVGHLAEIYVYGTDKLEHHHHHH | not failed
MGEGGEMGVGIFQIDMDWLHRWLRHRRGPGSGKTSGNRNLKPRLTPAAAQQDHRQMLCFMTLNAAVGVLIGICVGAALIFLDIGGLGARIGRAASPFVPVLLVVVPIASLFGAAAAASAILLMPYEKKFRDDDDDARGE | failed
MTTLVLVSHPHLADSTSQQFLKASINSDEVLWEHIESQATIDIEKEQAQLRQADRIILQFPLYWYAAPAGLKQWEDTVLTRTFVYGDHRYPLAGKELGIVVTTGMPAKAFQRGGAEQITLDAALAPLAAVANRAKMKWLPTFAIHQFAYLDEPAKLQLVVDYQRYLTQTQPDNLQNKQAWFAQHLPAMIERLPLEQQQAGQLILTAFEQQQTDLEALTDTLGLIKEQEDD | failed
MEMRKIGLIGGMSFESSAVYYRLVNEAVRRRRGKLHSAEVLLHSVDFQRIVDLQRAGHWDDAALLLSDVARGLVAGGADCILICSNTMHLIADAVHASVDVPLINIIDETALRLKAAGSRKPLLLATRYTMEQGFYAERMKTHDIDLMVPDADGRTLTHNVIFDELCAGQVLNASRSAVIGLIEKAKAEGADAVILGCTEICLLLDPADLPLPGFDSTAIHAEAAVEFSLRDRQ | failed
